Reference: patent US20110274653A1, “DENDRITIC CELL IMMUNORECEPTORS (DCIR)-MEDIATED CROSSPRIMING OF HUMAN CD8+ T CELLS” (priority 2010, published 2011)

What was measured:
naïve CD8^+ T cells = experiment: Quality of primed CD8+ T cells (effector molecules, cytokines) by DC activator; assay type: cell-based, human; settings: IFN-α DCs targeted with anti-DCIR-MART-1, Luminex, FIG. 7F
Protocol: Expansion of antigen-specific T cells in DC/T cell coculture: To assess the function of DCs in presenting FluMP- or MART-1-derived antigens, the present inventors used DCs from HLA-A201^+ donors. Cells were cultured with conjugates mAbs at the indicated concentration. Syngeneic purified CD8^+ T cells were cultured with the antigen-pulsed DCs at a DC/T ratio 1:20. CD40L (100 ng/ml; R&D) was added to the culture after 24 h to enhance crosspresentation by DCs^49. The cocultures were incubated at 37° C. for 8-10 days. IL-2 was added at 10 U/ml at day 3. Where indicated, DCs were activated with TLR agonists: LPS (10, 50 or 200 ng/ml; […]; Invivogen). The expansion of FluMP-, MART-1-, and HIV gag p24-specific CD8^+ T cells was evaluated using HLA-A201-FluMP (58-66) peptide ([…]) (SEQ ID NO: 1), HLA-A201-MART-1 (26-35) peptide ([…]) (SEQ ID NO: 2) and HLA-A201-p24 (151-155) peptide ([…]) (SEQ ID NO: 3)-tetramers, respectively (Beckman Coulter). For the assessment of crosspriming to multiple CD8^+ T cell-specific epitopes, CD34^+-derived DCs were incubated with anti-DCIR-p24 or IgG4-p24 fusion mAbs and cultured with CFSE-labeled CD8^+ T cells at a DC/T ratio 1:30. […] The secreted IFN-γ was measured in the culture supernatants by Luminex. […] Secretion of IFN-γ, TNF-α, IL-12p40, IL-4, IL-5 and IL-13 were measured in the supernatant after 40 h by Luminex. […]

blood HLA-A201^+ mDCs = assay type: cell-based, human; settings: mDCs targeted with anti-DCIR.doc-coh.FluMP; Poly I:C 5 μg/ml, LPS 50 ng/ml, CL075 1 μg/ml
Protocol: The specific-FluMP CD8^+ T cell response was measured after 8-10 days using HLA-A201-FluMP (58-66) tetramer.

CD1a^+ LCs = experiment: DCIR-signaling effect on DC phenotype and activation (surface markers, cytokines); settings: stimulated 24 h
Protocol: DCIR-signaling effect on DC-function: CD34^+-derived DCs were cultured in anti-DCIR (clone 24A5 or 9E8) or isotype control coated plates in the presence or absence of CD40L (R&D; 100 ng/ml) or LPS (Invivogen; 50 ng/ml). After 24 h, cells were harvested and stained for surface phenotype. The secreted cytokines were analyzed by a multiplex bead assay (Luminex).

Molecule | cytokines of DCIR-primed CD8^+ T cells according to the DC activator (naïve CD8^+ T cells) | effect of TLR agonist on FluMP-specific CD8^+ T cell response (blood HLA-A201^+ mDCs) | Mean fluorescence expression of CD40 (CD1a^+ LCs) | Mean fluorescence expression of CD80 (CD1a^+ LCs) | Mean fluorescence expression of CD86 (CD1a^+ LCs) | Mean fluorescence expression of HLA-ABC (CD1a^+ LCs) | Mean fluorescence expression of HLA-DR (CD1a^+ LCs) | Mean fluorescence expression of ICOS-L (CD1a^+ LCs)
CCCc1nc2c(N)nc3ccccc3c2s1 [CL075, reference compound] | preferentially secrete IFN-γ and TNF-α with markedly reduced amounts of IL-4, IL-5 and IL-13 |  |  |  |  |  |  | 
Poly I:C |  | enhanced the FluMP-specific responses at low concentration of the targeting complex |  |  |  |  |  | 
CD40L: CD40 ligand (R&D; 100 ng/ml) used as DC activator (protein, UniProt P29965 113-261, looked up) CD40 ligand, soluble form: MQKGDQNPQIAAHVISEASSKTTSVLQWAEKGYYTMSNNLVTLENGKQLTVKRQGLYYIYAQVTFCSNREASSQAPFIASLCLKSPGRFERILLRAANTHSSAKPCGQQSIHLGGVFELQPGASVFVNVTDPSQVSHGTGFTSFGLLKL | high amounts of type 2 cytokines (IL-4, IL-5 and IL-13) |  | 31.8 | 241.0 | 294.0 | 108.0 | 1018.000 | 69.800
